From publication PMC10397247

What was measured:
Experiment in all cases: two-hybrid library CCmax;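 note: natural log of median RNA to DNA barcode read ratio; higher means stronger binding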
[1] = target: T1, 4H780-AA; settings: mean of both orientations
T1 chain: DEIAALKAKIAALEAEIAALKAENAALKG

[2] = target: T2, 4H2575-AA; settings: mean of both orientations
T2 chain: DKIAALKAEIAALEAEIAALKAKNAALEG

[3] = target: T3, 4H2949-AA; settings: mean of both orientations
T3 chain: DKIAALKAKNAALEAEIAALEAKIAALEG

[4] = target: T4, 4H3655-AA; settings: mean of both orientations
T4 chain: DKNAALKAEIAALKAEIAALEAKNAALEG

[5] = target: T5, 4H993-AA; settings: mean of both orientations
T5 chain: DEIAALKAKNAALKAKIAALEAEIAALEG

[6] = target: T6, 4H717-AA; settings: mean of both orientations
T6 chain: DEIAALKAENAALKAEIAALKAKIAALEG

[7] = target: T7, 4H234-AA; settings: mean of both orientations
T7 chain: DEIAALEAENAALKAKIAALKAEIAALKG

[8] = target: T8, 4H2190-AA; settings: mean of both orientations
T8 chain: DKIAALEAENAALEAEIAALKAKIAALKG

[9] = target: T9, 4H342-AA; settings: mean of both orientations
T9 chain: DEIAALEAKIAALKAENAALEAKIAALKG

[10] = target: T10, 4H2151-AA; settings: mean of both orientations
T10 chain: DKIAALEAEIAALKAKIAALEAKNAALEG

[11] = target: T11, 4H317-AA; settings: mean of both orientations
T11 chain: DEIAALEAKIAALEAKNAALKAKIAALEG

[12] = target: T12, 4H3921-AA; settings: mean of both orientations
T12 chain: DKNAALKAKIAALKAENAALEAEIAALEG

[13] = target: T13, 4H2505-AA; settings: mean of both orientations
T13 chain: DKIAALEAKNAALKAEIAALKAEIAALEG

[14] = target: T14, 4H605-AA; settings: mean of both orientations
T14 chain: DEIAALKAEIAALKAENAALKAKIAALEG

[15] = target: T15, 4H2642-AA; settings: mean of both orientations
T15 chain: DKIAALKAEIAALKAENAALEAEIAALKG

[16] = target: T16, 4H2754-AA; settings: mean of both orientations
T16 chain: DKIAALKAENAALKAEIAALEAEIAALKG

[17] = target: T17, 4H2277-AA; settings: mean of both orientations
T17 chain: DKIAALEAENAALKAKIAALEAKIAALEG

[18] = target: T18, 4H3343-AA; settings: mean of both orientations
T18 chain: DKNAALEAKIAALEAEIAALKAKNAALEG

[19] = target: T19, 4H2617-AA; settings: mean of both orientations
T19 chain: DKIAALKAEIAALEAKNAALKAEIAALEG

[20] = target: T20, 4H906-AA; settings: mean of both orientations
T20 chain: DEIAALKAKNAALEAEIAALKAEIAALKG

[21] = target: T21, 4H2165-AA; settings: mean of both orientations
T21 chain: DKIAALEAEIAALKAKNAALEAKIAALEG

[22] = target: T22, 4H2883-AA; settings: mean of both orientations
T22 chain: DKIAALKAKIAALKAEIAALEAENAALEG

[23] = target: T23, 4H678-AA; settings: mean of both orientations
T23 chain: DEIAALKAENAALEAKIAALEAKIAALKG

[24] = target: T24, 4H2729-AA; settings: mean of both orientations
T24 chain: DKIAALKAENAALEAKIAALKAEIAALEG

[25] = target: T25, 4H794-AA; settings: mean of both orientations
T25 chain: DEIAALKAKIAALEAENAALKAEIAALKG

[26] = target: T26, 4H3606-AA; settings: mean of both orientations
T26 chain: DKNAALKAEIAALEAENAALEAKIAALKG

[27] = target: T27, 4H2078-AA; settings: mean of both orientations
T27 chain: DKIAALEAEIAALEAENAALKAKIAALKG

[28] = target: T28, 4H2944-AA; settings: mean of both orientations
T28 chain: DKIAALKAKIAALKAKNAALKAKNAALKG

[29] = target: T29, 4H2393-AA; settings: mean of both orientations
T29 chain: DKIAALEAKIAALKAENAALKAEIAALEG

[30] = target: T30, 4H3844-AA; settings: mean of both orientations
T30 chain: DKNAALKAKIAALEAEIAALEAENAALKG

[31] = target: T31, 4H429-AA; settings: mean of both orientations
T31 chain: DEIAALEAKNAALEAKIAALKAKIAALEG

[32] = target: T32, 4H2837-AA; settings: mean of both orientations
T32 chain: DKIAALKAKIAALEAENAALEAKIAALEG

[33] = target: T33, 4H3112-AA; settings: mean of both orientations
T33 chain: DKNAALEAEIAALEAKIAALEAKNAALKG

[34] = target: T34, 4H1636-AA; settings: mean of both orientations
T34 chain: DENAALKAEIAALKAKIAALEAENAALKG

[35] = target: T35, 4H1867-AA; settings: mean of both orientations
T35 chain: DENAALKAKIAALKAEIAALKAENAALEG

[36] = target: T36, 4H48-AA; settings: mean of both orientations
T36 chain: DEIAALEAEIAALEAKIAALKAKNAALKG

[37] = target: T37, 4H335-AA
T37 chain: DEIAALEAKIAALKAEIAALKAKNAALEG

[38] = target: T38, 4H3627-AA; settings: mean of both orientations
T38 chain: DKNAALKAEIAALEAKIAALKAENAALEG

[39] = target: T39, 4H881-AA; settings: mean of both orientations
T39 chain: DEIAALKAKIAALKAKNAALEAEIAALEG

[40] = target: T40, 4H454-AA; settings: mean of both orientations
T40 chain: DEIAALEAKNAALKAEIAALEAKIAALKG

[41] = target: T41, 4H2466-AA; settings: mean of both orientations
T41 chain: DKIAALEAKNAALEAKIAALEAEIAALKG

[42] = target: T42, 4H566-AA; settings: mean of both orientations
T42 chain: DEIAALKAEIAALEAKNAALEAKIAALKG

[43] = target: T43, 4H2354-AA; settings: mean of both orientations
T43 chain: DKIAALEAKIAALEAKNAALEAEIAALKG

[44] = target: T44, 4H1552-AA
T44 chain: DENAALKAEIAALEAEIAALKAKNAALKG

[45] = target: T45, 4H3427-AA; settings: mean of both orientations
T45 chain: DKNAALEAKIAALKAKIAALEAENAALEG

interaction score [1]: 0.0206 | interaction score [2]: -0.206 | interaction score [3]: -1.42 | interaction score [4]: 1.01 | interaction score [5]: -0.53 | interaction score [6]: -0.949 | interaction score [7]: 1.6 | interaction score [8]: -0.831 | interaction score [9]: -0.367 | interaction score [10]: -0.598 | interaction score [11]: 0.795 | interaction score [12]: -0.743 | interaction score [13]: -0.681 | interaction score [14]: -1.23 | interaction score [15]: 0.755 | interaction score [16]: -0.498 | interaction score [17]: -1.3 | interaction score [18]: 0.455 | interaction score [19]: -0.622 | interaction score [20]: -1.18 | interaction score [21]: -1.44 | interaction score [22]: 2.2 | interaction score [23]: -0.931 | interaction score [24]: -0.018 | interaction score [25]: -1.55 | interaction score [26]: -0.722 | interaction score [27]: -0.958 | interaction score [28]: -1.04 | interaction score [29]: -1.36 | interaction score [30]: 1.43 | interaction score [31]: -0.746 | interaction score [32]: -0.547 | interaction score [33]: -0.246 | interaction score [34]: 0.254 | interaction score [35]: 2.28 | interaction score [36]: 0.191 | interaction score [37]: 1.76 | interaction score [38]: 1.45 | interaction score [39]: -0.939 | interaction score [40]: -0.754 | interaction score [41]: -1.4 | interaction score [42]: -0.817 | interaction score [43]: -1.41 | interaction score [44]: 0.838 | interaction score [45]: 1.64
Binder: DENAALKAEIAALEAEIAALKAKNAALKG [4H1552-AA]
